Two molecules from article PMC7082060, “Structure of mouse coronavirus spike protein complexed with receptor reveals mechanism for viral entry” (PLoS Pathogens, 2020) can be followed below.

Data set [1] addresses MHV spike ectodomain (S-e), strain A59 (mouse hepatitis coronavirus (MHV), strain A59) (UniProt P11224).
Data set [2] has the same target. The experiment in a line: cryo-EM structure.
Data set [3] deals with the molecule itself. The experiment in a line: cryo-EM structure.

Regarding “Mouse CEACAM1a ectodomain (D1-D4), C-terminal His6 tag (receptor)”, in data set [1], the negative-stain EM: share of S-e molecules in the post-fusion conformation after high concentration of trypsin with CEACAM1a (11.75% without CEACAM1a) was 50.9%. The molecule further returned a stoichiometry N (CEACAM1a molecules per S-e trimer) in data set [2] of 3.

B1: MHV spike ectodomain (S-e), strain A59 (domain or fragment)
chain: YIGDFRCIQLVNSNGANVSAPSISTETVEVSQGLGTYYVLDRVYLNATLLLTGYYPVDGSKFRNLALRGTNSVSLSWFQPPYLNQFNDGIFAKVQNLKTSTPSGATAYFPTIVIGSLFGYTSYTVVIEPYNGVIMASVCQYTICQLPYTDCKPNTNGNKLIGFWHTDVKPPICVLKRNFTLNVNADAFYFHFYQHGGTFYAYYADKPSATTFLFSVYIGDILTQYYVLPFICNPTAGSTFAPRYWVTPLVKRQYLFNFNQKGVITSAVDCASSYTSEIKCKTQSMLPSTGVYELSGYTVQPVGVVYRRVANLPACNIEEWLTARSVPSPLNWERKTFQNCNFNLSSLLRYVQAESLFCNNIDASKVYGRCFGSISVDKFAVPRSRQVDLQLGNSGFLQTANYKIDTAATSCQLHYTLPKNNVTINNHNPSSWNRRYGFNDAGVFGKNQHDVVYAQQCFTVRSSYCPCAQPDIVSPCTTQTKPKSAFVNVGDHCEGLGVLEDNCGNADPHKGCICANNSFIGWSHDTCLVNDRCQIFANILLNGINSGTTCSTDLQLPNTEVVTGICVKYDLYGITGQGVFKEVKADYYNSWQTLLYDVNGNLNGFRDLTTNKTYTIRSCYSGRVSAAFHKDAPEPALLYRNINCSYVFSNNISREENPLNYFDSYLGCVVNADNRTDEALPNCDLRMGAGLCVDYSKSRRAHRSVSTGYRLTTFEPYTPMLVNDSVQSVDGLYEMQIPTNFTIGHHEEFIQTRSPKVTIDCAAFVCGDNTACRQQLVEYGSFCVNVNAILNEVNNLLDNMQLQVASALMQGVTISSRLPDGISGPIDDINFSPLLGCIGSTCAEDGNGPSAIRGRSAIEDLLFDKVKLSDVGFVEAYNNCTGGQEVRDLLCVQSFNGIKVLPPVLSESQISGYTTGATAAAMFPPWSAAAGVPFSLSVQYRINGLGVTMNVLSENQKMIASAFNNALGAIQDGFDATNSALGKIQSVVNANAEALNNLLNQLSNRFGAISASLQEILTRLEAVEAKAQIDRLINGRLTALNAYISKQLSDSTLIKVSAAQAIEKVNECVKSQTTRINFCGNGNHILSLVQNAPYGLYFIHFSYVPISFTTANVSPGLCISGDRGLAPKAGYFVQDDGEWKFTGSSYYYPEPITDKNSVIMSSCAVNYTKAPEVFLNTSIPNPPDFKEELDKWFKNQTSIAPDLSLDFEKLNVT
notes: also called MHV S-e; recombinant MHV S-e; not shown: GCN4 trimerization tag, C-terminal, kept; His6, C-terminal, kept
As for B1, in data set [3], the “stoichiometry N” value turned out to be 3.

The stoichiometry N is the number of molecules, sites or subunits per partner or assembly.
